Assay [1] concerns the target T1, human MUC1 SEA domain protein (human, UniProt P15941 1036-1155).
T1 construct: also called HuMUC1-SEA; huMUC1 SEA
T1 sequence: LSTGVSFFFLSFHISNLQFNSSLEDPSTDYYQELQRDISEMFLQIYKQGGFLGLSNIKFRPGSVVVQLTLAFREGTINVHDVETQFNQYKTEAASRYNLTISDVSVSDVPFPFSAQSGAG
Put plainly: SPR (Biacore 2000), antibody captured, huMUC1 SEA analyte, 1:1 binding. In general terms: SPR reads the build-up and loss of mass on a sensor chip optically.

Assay [2] concerns the target T1, human MUC1 SEA domain protein. In words: SPR, antibody captured, huMUC1 SEA analyte.

By Kd is commonly meant the free concentration of one partner at which half of the binding sites on the other are occupied at equilibrium, for simple one-to-one binding. Low values mean higher affinity, high ones lower affinity.

B1: BG138P-Bz0 (antibody, human IgG1, V domains shown)
VH: QVQLVQSGAEVKKPGASVKVSCKASGYTFTTYTMHWIKQAPGQGLEWIGYINPGSDYTHYNQKFKDKATLTADKSASTAYMELYSLRSEDTAVYYCARQGNYAAYYFDYWGQGTLVTVSS
VL: DIQMTQSPSSLSASVGDRVTITCRASGNIHNFLVWYQQKPGKSPKLLVYNAKTLTDGVPSRFSGSGSGTQYSLTISSLQPEDVATYYCQNFWNVPFTFGSGTKLEIK
notes: human IgG1/Ckappa
For B1, in assay [1], the dissociation constant Kd turned out to be 464 pM.

B2: BG138P-Hz0 (antibody, human IgG1, V domains shown)
VH: QVQLVQSGAEVKKPGASVKVSCKASGYTFTTYTMHWVRQAPGQRLEWMGYINPGSDYTHYNQKFKDRVTITRDTSASTAYMELSSLRSEDTAVYYCARQGNYAAYYFDYWGQGTLVTVSS
VL: DIQMTQSPSSLSASVGDRVTITCRASGNIHNFLVWYQQKPGKVPKLLIYNAKTLTDGVPSRFSGSGSGTDFTLTISSLQPEDVATYYCQNFWNVPFTFGQGTKLEIK
notes: human IgG1/Ckappa
B2: the Kd in assay [1] worked out at 527 pM.

B3: BG138P-Bz1 (antibody, human IgG1, V domains shown)
VH: QVQLVQSGAEVKKPGASVKVSCKASGYTFTTYTMHWVKQAPGQGLEWIGYINPGSDYTHYNQKFKDKATLTADKSASTAYMELYSLRSEDTAVYYCARQGNYAAYYFDYWGQGTLVTVSS
VL: DIQMTQSPSSLSASVGDRVTITCRASGNIHNFLVWYQQKPGKSPKLLVYNAKTLTDGVPSRFSGSGSGTQYSLTISSLQPEDVATYYCQNFWNVPFTFGSGTKLEIK
notes: human IgG1/Ckappa
As for B3, in assay [1], the affinity, expressed as Kd, was 503 pM.

B4: BG138P-Bz5 (antibody, human IgG1, V domains shown)
VH: QVQLVQSGAEVKKPGASVKVSCKASGYTFTTYTMHWIKQAPGQGLEWIGYINPGSDYTHYNQKFKDRATLTADKSASTAYMELYSLRSEDTAVYYCARQGNYAAYYFDYWGQGTLVTVSS
VL: DIQMTQSPSSLSASVGDRVTITCRASGNIHNFLVWYQQKPGKSPKLLVYNAKTLTDGVPSRFSGSGSGTQYSLTISSLQPEDVATYYCQNFWNVPFTFGSGTKLEIK
notes: human IgG1/Ckappa
In assay [1], B4 registered a Kd of 475 pM.

B5: BG138P-Bz13 (antibody, human IgG1, V domains shown)
VH: QVQLVQSGAEVKKPGASVKVSCKASGYTFTTYTMHWIKQAPGQGLEWIGYINPGSDYTHYNQKFKDKATLTADKSASTAYMELYSLRSEDTAVYYCARQGNYAAYYFDYWGQGTLVTVSS
VL: DIQMTQSPSSLSASVGDRVTITCRASGNIHNFLVWYQQKPGKSPKLLVYNAKTLTDGVPSRFSGSGSGTDYSLTISSLQPEDVATYYCQNFWNVPFTFGSGTKLEIK
notes: human IgG1/Ckappa
Regarding B5, in assay [1], binding was characterised by a dissociation constant (Kd) of 453 pM.

B6: BG138P-Bz7 (antibody, human IgG1, V domains shown)
VH: QVQLVQSGAEVKKPGASVKVSCKASGYTFTTYTMHWIKQAPGQGLEWIGYINPGSDYTHYNQKFKDKATITADKSASTAYMELYSLRSEDTAVYYCARQGNYAAYYFDYWGQGTLVTVSS
VL: DIQMTQSPSSLSASVGDRVTITCRASGNIHNFLVWYQQKPGKSPKLLVYNAKTLTDGVPSRFSGSGSGTQYSLTISSLQPEDVATYYCQNFWNVPFTFGSGTKLEIK
notes: human IgG1/Ckappa
Molecule B6 gave a dissociation constant (Kd) in assay [1] of 407 pM.

B7: BG138P-Bz14 (antibody, human IgG1, V domains shown)
VH: QVQLVQSGAEVKKPGASVKVSCKASGYTFTTYTMHWIKQAPGQGLEWIGYINPGSDYTHYNQKFKDKATLTADKSASTAYMELYSLRSEDTAVYYCARQGNYAAYYFDYWGQGTLVTVSS
VL: DIQMTQSPSSLSASVGDRVTITCRASGNIHNFLVWYQQKPGKSPKLLVYNAKTLTDGVPSRFSGSGSGTQFSLTISSLQPEDVATYYCQNFWNVPFTFGSGTKLEIK
notes: human IgG1/Ckappa
For the molecule B7, the dissociation constant Kd in assay [1] worked out at 608 pM.

B8: BG138P-Bz15 (antibody, human IgG1, V domains shown)
VH: QVQLVQSGAEVKKPGASVKVSCKASGYTFTTYTMHWIKQAPGQGLEWIGYINPGSDYTHYNQKFKDKATLTADKSASTAYMELYSLRSEDTAVYYCARQGNYAAYYFDYWGQGTLVTVSS
VL: DIQMTQSPSSLSASVGDRVTITCRASGNIHNFLVWYQQKPGKSPKLLVYNAKTLTDGVPSRFSGSGSGTQYTLTISSLQPEDVATYYCQNFWNVPFTFGSGTKLEIK
notes: human IgG1/Ckappa
The molecule B8 came in with a dissociation constant Kd in assay [1] of 493 pM.

B9: BG138P-Bz6 (antibody, human IgG1, V domains shown)
VH: QVQLVQSGAEVKKPGASVKVSCKASGYTFTTYTMHWIKQAPGQGLEWIGYINPGSDYTHYNQKFKDKVTLTADKSASTAYMELYSLRSEDTAVYYCARQGNYAAYYFDYWGQGTLVTVSS
VL: DIQMTQSPSSLSASVGDRVTITCRASGNIHNFLVWYQQKPGKSPKLLVYNAKTLTDGVPSRFSGSGSGTQYSLTISSLQPEDVATYYCQNFWNVPFTFGSGTKLEIK
notes: human IgG1/Ckappa
Molecule B9 showed a Kd in assay [1] of 518 pM.

B10: huBG138P-Hz4 (antibody, V domains shown)
VH: QVQLVQSGAEVKKPGASVKVSCKASGYTFTTYTMHWVRQAPGQGLEWMGYINPGSDYTHYNQKFKDRVTITADKSASTAYMELSSLRSEDTAVYYCARQGNYAAYYFDYWGQGTLVTVSS
VL: DIQMTQSPSSLSASVGDRVTITCRASGNIHNFLVWYQQKPGKSPKLLIYNAKTLTSGVPSRFSGSGSGTQYTLTISSLQPEDVATYYCQNFWNVPFTFGQGTKLEIK
notes: humanized; constant regions not restated
B10: the Kd in assay [2] worked out at 223 pM.

B11: BG138P-Bz3 (antibody, human IgG1, V domains shown)
VH: QVQLVQSGAEVKKPGASVKVSCKASGYTFTTYTMHWIKQAPGQRLEWIGYINPGSDYTHYNQKFKDKATLTADKSASTAYMELYSLRSEDTAVYYCARQGNYAAYYFDYWGQGTLVTVSS
VL: DIQMTQSPSSLSASVGDRVTITCRASGNIHNFLVWYQQKPGKSPKLLVYNAKTLTDGVPSRFSGSGSGTQYSLTISSLQPEDVATYYCQNFWNVPFTFGSGTKLEIK
notes: human IgG1/Ckappa
Take B11: in assay [1], the Kd stood at 532 pM.

B12: huBG138P-Hz3 (antibody, V domains shown)
VH: QVQLVQSGAEVKKPGASVKVSCKASGYTFTTYTMHWVRQAPGQGLEWMGYINPGSDYTHYNQKFKDRVTITADKSASTAYMELSSLRSEDTAVYYCARQGNYAAYYFDYWGQGTLVTVSS
VL: DIQMTQSPSSLSASVGDRVTITCRASGNIHNFLVWYQQKPGKVPKLLIYNAKTLTSGVPSRFSGSGSGTDYTLTISSLQPEDVATYYCQNFWNVPFTFGQGTKLEIK
notes: as for B10
With B12, in assay [2], the affinity, expressed as Kd, was 242 pM.

B13: BG138P-Bz8 (antibody, human IgG1, V domains shown)
VH: QVQLVQSGAEVKKPGASVKVSCKASGYTFTTYTMHWIKQAPGQGLEWIGYINPGSDYTHYNQKFKDKATLTRDKSASTAYMELYSLRSEDTAVYYCARQGNYAAYYFDYWGQGTLVTVSS
VL: DIQMTQSPSSLSASVGDRVTITCRASGNIHNFLVWYQQKPGKSPKLLVYNAKTLTDGVPSRFSGSGSGTQYSLTISSLQPEDVATYYCQNFWNVPFTFGSGTKLEIK
notes: human IgG1/Ckappa
Turning to B13, in assay [1], the dissociation constant Kd came to 608 pM.

B14: BG138P-Bz10 (antibody, human IgG1, V domains shown)
VH: QVQLVQSGAEVKKPGASVKVSCKASGYTFTTYTMHWIKQAPGQGLEWIGYINPGSDYTHYNQKFKDKATLTADKSASTAYMELSSLRSEDTAVYYCARQGNYAAYYFDYWGQGTLVTVSS
VL: DIQMTQSPSSLSASVGDRVTITCRASGNIHNFLVWYQQKPGKSPKLLVYNAKTLTDGVPSRFSGSGSGTQYSLTISSLQPEDVATYYCQNFWNVPFTFGSGTKLEIK
notes: human IgG1/Ckappa
In the case of B14, the equilibrium dissociation constant (Kd) in assay [1] was found to be 448 pM.

B15: BG138P-Bz12 (antibody, human IgG1, V domains shown)
VH: QVQLVQSGAEVKKPGASVKVSCKASGYTFTTYTMHWIKQAPGQGLEWIGYINPGSDYTHYNQKFKDKATLTADKSASTAYMELYSLRSEDTAVYYCARQGNYAAYYFDYWGQGTLVTVSS
VL: DIQMTQSPSSLSASVGDRVTITCRASGNIHNFLVWYQQKPGKSPKLLIYNAKTLTDGVPSRFSGSGSGTQYSLTISSLQPEDVATYYCQNFWNVPFTFGSGTKLEIK
notes: human IgG1/Ckappa
Turning to B15, in assay [1], the Kd was 501 pM.

B16: BG138P-Bz11 (antibody, human IgG1, V domains shown)
VH: QVQLVQSGAEVKKPGASVKVSCKASGYTFTTYTMHWIKQAPGQGLEWIGYINPGSDYTHYNQKFKDKATLTADKSASTAYMELYSLRSEDTAVYYCARQGNYAAYYFDYWGQGTLVTVSS
VL: DIQMTQSPSSLSASVGDRVTITCRASGNIHNFLVWYQQKPGKVPKLLVYNAKTLTDGVPSRFSGSGSGTQYSLTISSLQPEDVATYYCQNFWNVPFTFGSGTKLEIK
notes: human IgG1/Ckappa
For the molecule B16, binding in assay [1] was put at a Kd of 513 pM.

B17: BG138P-Bz4 (antibody, human IgG1, V domains shown)
VH: QVQLVQSGAEVKKPGASVKVSCKASGYTFTTYTMHWIKQAPGQGLEWMGYINPGSDYTHYNQKFKDKATLTADKSASTAYMELYSLRSEDTAVYYCARQGNYAAYYFDYWGQGTLVTVSS
VL: DIQMTQSPSSLSASVGDRVTITCRASGNIHNFLVWYQQKPGKSPKLLVYNAKTLTDGVPSRFSGSGSGTQYSLTISSLQPEDVATYYCQNFWNVPFTFGSGTKLEIK
notes: human IgG1/Ckappa
Consider B17, for which the dissociation constant (Kd) in assay [1] worked out at 488 pM.

B18: BG138P-Bz9 (antibody, human IgG1, V domains shown)
VH: QVQLVQSGAEVKKPGASVKVSCKASGYTFTTYTMHWIKQAPGQGLEWIGYINPGSDYTHYNQKFKDKATLTADTSASTAYMELYSLRSEDTAVYYCARQGNYAAYYFDYWGQGTLVTVSS
VL: DIQMTQSPSSLSASVGDRVTITCRASGNIHNFLVWYQQKPGKSPKLLVYNAKTLTDGVPSRFSGSGSGTQYSLTISSLQPEDVATYYCQNFWNVPFTFGSGTKLEIK
notes: human IgG1/Ckappa
B18 came in with a dissociation constant Kd in assay [1] of 476 pM.

B19: BG138P-Bz2 (antibody, human IgG1, V domains shown)
VH: QVQLVQSGAEVKKPGASVKVSCKASGYTFTTYTMHWIRQAPGQGLEWIGYINPGSDYTHYNQKFKDKATLTADKSASTAYMELYSLRSEDTAVYYCARQGNYAAYYFDYWGQGTLVTVSS
VL: DIQMTQSPSSLSASVGDRVTITCRASGNIHNFLVWYQQKPGKSPKLLVYNAKTLTDGVPSRFSGSGSGTQYSLTISSLQPEDVATYYCQNFWNVPFTFGSGTKLEIK
notes: human IgG1/Ckappa
B19 registered a dissociation constant Kd in assay [1] of 453 pM.

B20: BG138P-Bz16 (antibody, human IgG1, V domains shown)
VH: QVQLVQSGAEVKKPGASVKVSCKASGYTFTTYTMHWIKQAPGQGLEWIGYINPGSDYTHYNQKFKDKATLTADKSASTAYMELYSLRSEDTAVYYCARQGNYAAYYFDYWGQGTLVTVSS
VL: DIQMTQSPSSLSASVGDRVTITCRASGNIHNFLVWYQQKPGKSPKLLVYNAKTLTDGVPSRFSGSGSGTQYSLTISSLQPEDVATYYCQNFWNVPFTFGQGTKLEIK
notes: human IgG1/Ckappa
Molecule B20 came in with a Kd in assay [1] of 466 pM.

B21: huBG138P-Hz1 (antibody, V domains shown)
VH: QVQLVQSGAEVKKPGASVKVSCKASGYTFTTYTMHWVRQAPGQRLEWMGYINPGSDYTHYNQKFKDRVTITADTSASTAYMELSSLRSEDTAVYYCARQGNYAAYYFDYWGQGTLVTVSS
VL: DIQMTQSPSSLSASVGDRVTITCRASGNIHNFLVWYQQKPGKVPKLLIYNAKTLTSGVPSRFSGSGSGTDYTLTISSLQPEDVATYYCQNFWNVPFTFGQGTKLEIK
notes: humanized; constant regions not restated (IgG1/Ckappa vector used for the first round)
Consider B21, for which the dissociation constant Kd in assay [2] amounted to 241 pM.

The record behind these values is patent US20250382384A1 (BEONE MEDICINES I, published 2025).
